Results on one molecule are retold here after patent US12296066B2, “Methods of wound healing with Serp-1 polypeptides” (ARIZONA BOARD OF REGENTS ON BEHALF OF ARIZONA STATE …, priority 2018, dated 2025).

For series [1] the following is noted: intravenous bolus injections, patients with unstable angina; cited from earlier work.
For another series, the system named is CD31-positive vessels. In words: CD31 immunohistochemistry of peri-wound vascularization. Format: in vivo, C57BL6/J mice. The text has this:
(§1) Skin tissues were collected at day 1, 4, 7 and 15 and fixed in 10% neutral-buffered formalin for at least two days before tissue processing with a Leica TP1050 and embedded in paraffin with a Leica EG1160 embedding station. Blocks were serially sectioned using a Leica RM2165 microtome (4 μm sections) and stained with hematoxylin and eosin (H&E) by standard procedure. […]
(§2) Slides were imaged on an Olympus BX51 upright microscope equipped with an Olympus DP74 high-resolution camera operated by cellSens Dimensions v1.16. Images were collected as objective-calibrated TIFFs and subsequently analyzed and processed in Image)/FIJI (Schindelin et al., Nat. […] Positively stained cells were counted per high power field for each treatment group.
The blood vessels were analyzed by immunohistochemistry with antibodies against the endothelial marker CD31 (also called PECAM-1), a marker for endothelial cells commonly used to indicate wound bed blood vessels (Vanchinathan et al., Am. J. Clin. Pathol. (2015). doi:10.1309/AJCPRHM8CZH5EMFD). The number of positive staining vessels in different optical fields was quantified from four pairs of saline- and Serp-1-treated wounds. […]

The subject of series [2] is full thickness dorsal skin wound. The series can be described thus: full-thickness splinted excisional wound healing model, planimetric wound closure. It is filed as in vivo, C57BL6/J mice. The text has this:
The mouse dermal wound healing splinted model was used for these studies where the contraction is held by a donut-shaped splint remains the most widely accepted and extensively used model to study skin wound healing in mice (Galiano et al., Wound Repair Regen. 12 (2004) 485-492. doi:10.1111/j.1067-1927.2004.12404.x, Wang et al., Nat. Protoc. 8 (2013) 302-309. doi:10.1038/nprot.2013.002, Dunn et al., J. Vis. Exp. (2013) 1-6. doi:10.3791/50265).
Mice (N=29 mice) were anesthetized by intraperitoneal injection of a cocktail of 120 mg/kg ketamine and 6 mg/kg xylazine, 0.1 ml/25 g bodyweight and prepped by shaving an area of approximately 1×1 inch spanning from between the ears to the peak of the spine, centered between each shoulder. The shaved area was sterilized by two washes with 2% chlorhexidine gluconate solution (Dyna-Hex 2®, Xttrium Laboratories) and 70% ethanol using cotton swabs.
A 3.5 mm punch biopsy was performed centered in the shaved area to create the full-thickness wound excision. Treatment or control as saline solution or chitosan-collagen hydrogel preparation were applied to the wound using a hand-held micropipette. In brief, 13 mice were given saline inoculation at the time of injury, 6 mice were given Serp-1 at the time of injury at doses or 1 or 2 μg. Six mice were given 1 μg of Serp-1 and followed by second bolus at 3 days post wounding. A second group of 6 mice were given Serp-1/chitosan treatment applied at the time of injury and 6 mice were given chitosan gel alone.
A donut-shaped silicon splint (O.D. 15 mm; I.D. 5.0 mm; Culture-Well™ Grace Biolabs) with Tegaderm™ (3M Company) affixed to one side was coated with cyanoacrylate glue (Krazy Glue®) on the opposite side and carefully placed on the back of the mouse with the biopsy site centered within the inner hole. Six interrupted sutures (4-0 black Ethilon monofilament with a FS-2 reverse cutting needle; Ethicon, Inc.) were placed around the outer edge of the splint to complete the procedure. Mice were allowed to recover and returned to single-housed cages for the remainder of the trial.
On the day of the procedure (Day 0) and on every subsequent day of follow-up, for a total of 15 days, mice were collected and wounds assessed while awake. Digital images were collected using a Google Pixel model 1 or 3XL smartphone camera. Planimetric measurements of wound healing progress was performed in Image)/FIJI and calibrated to known pixel-to-size measurements (Schindelin et al., Nat. Methods. 9 (2012) 676-682. doi:10.1038/nmeth.2019).
Serp-1 has proven to be an effective modulator of coagulation pathways and immune responses in numerous animal models of vascular injury and transplant. […] In this study, the efficacy of topical Serp-1 application was tested in a full-thickness excisional model of wound healing (FIG. 2A). A 3.5 mm biopsy punch was used to create a full thickness dorsal skin wound in C57BL6/J wildtype mice. Wounds were produced through the entirety of the dermis without puncturing the panniculus carnosus. In an initial analysis, Serp-1 was applied in saline solution and compared to control saline solution alone, given directly to the wound bed. A silicone splint with a gas-permeable Tegaderm layer was sutured over the bed. The silicone splint prevented wound contraction, allowing direct visualization and photography of wound re-epithelialization during the course of a 15-day healing period (FIG. 2B).

In series [3] the test system is collagen bundles (Type 3 / Type 1). The series can be described thus: Herovici's staining of collagen maturation in healed wounds. It is filed as in vivo, C57BL6/J mice. The text has this: (§3) Skin tissues were collected at day 1, 4, 7 and 15 and fixed in 10% neutral-buffered formalin for at least two days before tissue processing with a Leica TP1050 and embedded in paraffin with a Leica EG1160 embedding station. Blocks were serially sectioned using a Leica RM2165 microtome (4 μm sections) and stained with hematoxylin and eosin (H&E) by standard procedure. Sections were additionally stained by immunohistochemistry (IHC) for CD31 (Abcam, #ab28364, 1:100), Ly6G (Invitrogen, #14-5931-82, 1:100), and arginase-1 (Cell Signaling, #93668, 1:200), and with Masson's trichrome (Masson, J Tech Methods. 12 (1929) 75-90) and Herovici's polychrome (Herovici, Stain Technol. 38 (1963) 204-6, Levame and Meyer, Pathol. Biol. (Paris). 35 (1987) 1183-8) as special stains for collagen.
Collagens play a crucial role in angiogenesis during tissue regeneration. It is well known that collagen I a central factor allowing for endothelial cells to initiate precapillary cord formation. In contrast increased deposition of collagen III reduces the density of blood vessels at sites of wound healing (Davis, Circ. Res. (2005). doi:10.1161/01.RES.0000191547.64391.e3, O'Rourke, Adv. Wound Care. (2018). doi:10.1089/wound.2018.0827). […]

Series [4] relates to Arg-1 positive macrophages. In words: Arginase-1 immunohistochemistry, M2 macrophage differentiation in wounds. It is filed as in vivo, C57BL6/J mice.
Text: as §1, §2
Additionally the differentiation of M2 macrophages was =analyzed (FIG. 6C), during wound-healing (Kotwal and Chien, Macrophage differentiation in normal and accelerated wound healing, in: Results Probl. Cell Differ., 2017. doi:10.1007/978-3-319-54090-0_14), by IHC with antibodies against Arginase-1 (EC3.5.3.1). […]

In another series the test system is Ly6G positive cells. The series can be described thus: Ly6G immunohistochemistry, neutrophil infiltration in wounds. Format: in vivo, C57BL6/J mice. Particulars: day 4; p=0.110.
Text: as §3
Slides were imaged on an Olympus BX51 upright microscope equipped with an Olympus DP74 high-resolution camera operated by cellSens Dimensions v1.16. Images were collected as objective-calibrated TIFFs and subsequently analyzed and processed in Image)/FIJI (Schindelin et al., Nat. Methods. 9 (2012) 676-682. doi:10.1038/nmeth.2019). Positively stained cells were counted per high power field for each treatment group.
Therefor neutrophil infiltration was analyzed at sites of wound healing with and without treatment with Serp-1 at day 4 by immunohistochemistry with antibodies against Ly6G (FIG. 6A).

Another series has as its system dermal collagen fibers. In words: quantitative collagen texture analysis, Masson's trichrome. Format: in vivo, C57BL6/J mice. To be noted: 15 days wound healing. The protocol:
as §1
Quantitative collagen texture analysis was performed in Image)/FIJI (Schindelin, Nat. […] Local thickness of collagen bundles was determined with the plugin “LocalThickness 4.0.2” using the methods described by Saito and Toriwaki (Saito, Pattern Recognit. 27 (1994) 1551-1565. doi:10.1016/0031-3203(94)90133-3), and by Hildebrand and Rüegsegger (Hildebrand, J. Microsc. 185 (1997) 67-75. doi:10.1046/j.1365-2818.1997.1340694.x.). Regularity of collagen bundles was determined with the plugin “Directionality” as previously reported (Sensini, Biofabrication. 9 (2017) 015025. doi:10.1088/1758-5090/aa6204).
During wound healing, collagen accumulation and organization are correlated with scar formation. […] Local scar thickness (FIG. 7C) and directionality (FIG. 7D) of collagen in scars were analyzed using ImageJ after Masson's trichrome staining under microscopic examination (20× magnification).

B1: Serp-1: Recombinant Serp-1 (m008.1L), secreted Myxomavirus glycoprotein serpin, expressed in CHO cells; SEQ ID NO: 1 (protein, listed as Homo sapiens)
chain: MKYLVLVLCLTSCACRDIGLWTFRYVYNESDNVVFSPYGLTSALSVLRIAAGGNTKREIDVPESVVEDSDAFLALRELFVDASVPLRPEFTAEFSSRFNTSVQRVTFNSENVKDVINSYVKDKTGGDVPRVLDASLDRDTKMLLLSSVRMKTSWRHVFDPSFTTDQPFYSGNVTYKVRMMNKIDTLKTETFTLRNVGYSVTELPYKRRQTAMLLVVPDDLGEIVRALDLSLVRFWIRNMRKDVCQVVMPKFSVESVLDLRDALQRLGVRDAFDPSRADFGQASPSNDLYVTKVLQTSKIEADERGTTASSDTAITLIPRNALTAIVANKPFMFLIYHKPTTTVLFMGTIT
Turning to B1, in series [1], the safety entry was “proved safe”. For the same molecule, the “number of vessels each image (CD31-positive)” value with CD31-positive vessels (day 7, peri-wound area, saline control 10.0±2.5) came out at 36.3±4.9. The “appearance of CD31-positive vessels” value in the series with CD31-positive vessels (day 7, versus saline alone) was “appreciably more “mature” CD31-positive vessels, with increased length and thickness”. Besides, the “wound closure earlier compared to saline group” value in series [2] (1.0 μg Serp-1, in the first week) is recorded as “four”. The wound closure was 40% in series [2] (1.0 μg/wound at day 0 and day 3, day 5); “greater than 20%” in series [2] (2.0 μg Serp-1, day 5); 47% in series [2] (2.0 μg Serp-1, day 7); 30% in series [2] (single dose treatment groups, day 5). In addition, the “days less to achieve same degree of closure as control group at day 7 (or 2.0 μg at day 5)” value in series [2] (1.0 μg/wound/mouse, single dose, mean) came to 3 days. Also, in series [2] (2 μg/mouse, single topical dose day 0, p<0.0001), the “wound healing accelerated by” value is “approximately 3 days”. For the same molecule, the “day of healing equivalent to saline alone on Day 7” value in series [2] (Serp-1 [1+1]: 1 μg/mouse on Days 0 and 3 (FIG. 2C)) turned out to be 3 days. For the same molecule, the faster closure rate in series [2] (mouse model, conclusion) was 40%. Further, the scarring result in series [2] (mouse model, conclusion) is recorded as “reduction in scarring”. For the same molecule, the completeness of closure result in series [2] (repeated treatment group (1.0 μg day 0 + day 3), 15 days of observation) is recorded as “more completely closure than other groups”. The “time to wound closure accelerated by, compared to saline” value in series [2] (topical, doses of between 1 microgram and 2 micrograms, punch wounds on mouse back) lay within 2 to 5 days. In addition, the “ratio of collagen types in treated wound” value in series [3] (Herovici's stain, FIG. 8) was “increasing the ratio of collagen III to collagen I”. Also, the “collagen maturation by Herovici's stain” value in series [3] (day 15, versus saline-treated wounds) is “greater degree of maturation”. In addition, the “density of Arg-1 positive macrophages” value in series [4] (day 4, compared to control wounds) is given as “significantly increased density”. The “density of Arg-1 positive (M2) macrophages” value in series [4] (day 7, compared to untreated wounds) is given as “significant higher”. In the series with Ly6G positive cells, the “Ly6G positive cells in healing tissues” value is reported as “non significant trend toward an increase”. In addition, in the series on dermal collagen fibers, the collagen bundle thickness result was “increased bundle thickness”. Also, the collagen directionality entry with dermal collagen fibers was “more organized directionality”.
